Test results taken from paper doi:10.1101/2021.09.10.459738.

Target: heat-denatured ovalbumin (UniProt P01012)
Experiment: ELISA

Sequence of UniProt P01012 (P01012 whole entry): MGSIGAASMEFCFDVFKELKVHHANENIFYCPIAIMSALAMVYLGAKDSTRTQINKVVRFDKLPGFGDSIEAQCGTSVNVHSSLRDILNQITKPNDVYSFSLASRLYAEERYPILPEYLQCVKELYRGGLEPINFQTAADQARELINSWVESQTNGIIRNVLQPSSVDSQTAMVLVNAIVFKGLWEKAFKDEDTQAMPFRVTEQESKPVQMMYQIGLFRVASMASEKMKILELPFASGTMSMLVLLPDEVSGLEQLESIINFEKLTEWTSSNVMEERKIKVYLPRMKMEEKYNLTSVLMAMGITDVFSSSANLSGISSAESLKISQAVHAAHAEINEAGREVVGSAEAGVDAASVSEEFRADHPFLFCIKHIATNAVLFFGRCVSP

In the case of “human IRE1α-LD-Fc fusion protein (from UniProt O75460 19-443)”, the Kd is reported as 300 µM.
